# Reference: US11390894B2, “Biological processes for the production of aryl sulfates” (CysBio ApS, priority 2014, dated 2022)
# B1: RsTAL: tyrosine ammonia-lyase from Rhodobacter sphaeroides (protein)
# chain: MLAMSPPKPAVELDRHIDLDEAHSVASGGARIVLAPPARDRCRASEARLGAVIREARHVYGLTTGFGPLANRLVSGENVRTLQANLVHHLASGVGPVLDWTTARAMVLARLVAIAQGASGASEGTIARLIDLLNSELAPAVPMRGTVGASGDLTPLAHMVLCLQGRGDFLDRDGTRLDGAEGLRRGRLQPLDLSHRDALALVNGTSAMTGIALVNAHACRHLGNWAVALTALLAECLGGRTEAWAAALSDLRPHPGQKDAAARLRARVDGSARVVRHVIAERRLGASDIGTEPEAGQDAYSLRCAPQVLGAGFDTLAWHDRVLTIELNAVTDNPVFPPDGSVPALHGGNFMGQHVALTSDALATAVTVLAGLAERQIARLTDERLNRGLPPFLHRGPAGLNSGFMGAQVTATALLAEMRATGPASIHSISTNAANQDVVSLGTIAARLCREKIDRWAEILAILALCLAQAAELRCGSGLDGVSPAGKKLVQALREQFPPLETDRPLGQEIAALATHLLQQSPV
# modifications: Rhodobacter sphaeroides
# B2: FjTAL: tyrosine ammonia-lyase from Flavobacterium johnsoniae (protein, listed as Flavobacterium johnsoniae)
# chain: MNTINEYLSLEEFEAIIFGNQKVTISDVVVNRVNESFNFLKEFSGNKVIYGVNTGFGPMAQYRIKESDQIQLQYNLIRSHSSGTGKPLSPVCAKAAILARLNTLSLGNSGVHPSVINLMSELINKDITPLIFEHGGVGASGDLVQLSHLALVLIGEGEVFYKGERRPTPEVFEIEGLKPIQVEIREGLALINGTSVMTGIGVVNVYHAKKLLDWSLKSSCAINELVQAYDDHFSAELNQTKRHKGQQEIALKMRQNLSDSTLIRKREDHLYSGENTEEIFKEKVQEYYSLRCVPQILGPVLETINNVASILEDEFNSANDNPIIDVKNQHVYHGGNFHGDYISLEMDKLKIVITKLTMLAERQLNYLLNSKINELLPPFVNLGTLGFNFGMQGVQFTATSTTAESQMLSNPMYVHSIPNNNDNQDIVSMGTNSAVITSKVIENAFEVLAIEMITIVQAIDYLGQKDKISSVSKKWYDEIRNIIPTFKEDQVMYPFVQKVKDHLINN
# B3: RmXAL: enzyme from Rhodotorula mucilaginosa/Rhodotorula rubra with tyrosine ammonia lyase activity (protein, listed as Rhodotorula mucilaginosa)
# chain: MAPSVDSIATSVANSLSNGLHAAAAANGGDVHKKTAGAGSLLPTTETTQLDIVERILADAGATDQIKLDGYTLTLGDVVGAARRGRSVKVADSPHIREKIDASVEFLRTQLDNSVYGVTTGFGGSADTRTEDAISLQKALLEHQLCGVLPTSMDGFALGRGLENSLPLEVVRGAMTIRVNSLTRGHSAVRIVVLEALTNFLNHGITPIVPLRGTISASGDLSPLSYIAASITGHPDSKVHVDGKIMSAQEAIALKGLQPVVLGPKEGLGLVNGTAVSASMATLALTDAHVLSLLAQALTALTVEAMVGHAGSFHPFLHDVTRPHPTQIEVARNIRTLLEGSKYAVHHETEVKVKDDEGILRQDRYPLRCSPQWLGPLVSDMIHAHAVLSLEAGQSTTDNPLIDLENKMTHHGGAFMASSVGNTMEKTRLAVALMGKVSFTQLTEMLNAGMNRALPSCLAAEDPSLSYHCKGLDIAAAAYTSELGHLANPVSTHVQPAEMGNQAINSLALISARRTAEANDVLSLLLATHLYCVLQAVDLRAMEFEHTKAFEPMVTELLKQHFGALATAEVEDKVRKSIYKRLQQNNSYDLEQRWHDTFSVATGAVVEALAGQEVSLASLNAWKVACAEKAIALTRSVRDSFWAAPSSSSPALKYLSPRTRVLYSFVREEVGVKARRGDVYLGKQEVTIGTNVSRIYEAIKSGCIAPVLVKMMA
# B4: SULT1A1 Homo sapiens, RmXAL: SULT1A1 from Homo sapiens co-expressed with tyrosine ammonia lyase RmXAL in E. coli (protein, UniProt P50225 1-295, looked up)
# Sulfotransferase 1A1: MELIQDTSRPPLEYVKGVPLIKYFAEALGPLQSFQARPDDLLISTYPKSGTTWVSQILDMIYQGGDLEKCHRAPIFMRVPFLEFKAPGIPSGMETLKDTPAPRLLKTHLPLALLPQTLLDQKVKVVYVARNAKDVAVSYYHFYHMAKVHPEPGTWDSFLEKFMVGEVSYGSWYQHVQEWWELSRTHPVLYLFYEDMKENPKREIQKILEFVGRSLPEETVDFVVQHTSFKEMKKNPMTNYTTVPQEFMDHSISPFMRKGMAGDWKTTFTVAQNERFDADYAEKMAGCSLSFRSEL
# modifications: co-expressed with RmXAL
# notes: SULT1A1 from Homo sapiens co-expressed with tyrosine ammonia lyase RmXAL in E. coli
# B5: RcTAL: tyrosine ammonia-lyase from Rhodobacter capsulatus (protein, listed as Rhodobacter capsulatus)
# chain: MLDATIGRKRMTLQSQTAKDCLALDGALTLVQCEAIATHRSRISVTPALRERCARAHARLEHAIAEQRHIYGITTGFGPLANRLIGADQGAELQQNLIYHLATGVGPKLSWAEARALMLARLNSILQGASGASPETIDRIVAVLNAGFAPEVPAQGTVGASGDLTPLAHMVLALQGRGRMIDPSGRVQEAGAVMDRLCGGPLTLAARDGLALVNGTSAMTAIAALTGVEAARAIDAALRHSAVLMEVLSGHAEAWHPAFAELRPHPGQLRATERLAQALDGAGRVCRTLTAARRLTAADLRPEDHPAQDAYSLRVVPQLVGAVWDTLDWHDRVVTCELNSVTDNPIFPEGCAVPALHGGNFMGVHVALASDALNAALVTLAGLVERQIARLTDEKLNKGLPAFLHGGQAGLQSGFMGAQVTATALLAEMRANATPVSVQSLSTNGANQDVVSMGTIAARRARAQLLPLSQIQAILALALAQAMDLLDDPEGQAGWSLTARDLRDRIRAVSPGLRADRPLAGDIEAVAQGLRHPSAADPPA
# Assays:
# tyrosine [1] = assay: In vivo supply of p-coumaric acid by tyrosine ammonia-lyases co-expressed with SULT1A1 rat in E. coli; type: cell-based, Escherichia coli; settings: M9 0.2% glucose, 2 mM tyrosine, 1 mM IPTG, overnight 37° C., supernatant
# Experimental: (§1) The concentration of p-courmaric acid (pHCA) and zosteric acid in the supernatant was quantified by high performance (HPLC) and compared to chemical standards. HPLC was done on a Thermo setup using a HS-F5 column and mobile phases: 5 mM ammonium formate pH 4.0 (A) and acetonitrile (B) at 1.5 mL min-1, using a gradient elution starting at 5% B. From 0.5 min after injection to 7 min, the fraction of B increased linearly from 5% to 60%, and between 9.5 min and 9.6 the fraction of B decreased back to 5%, and remaining there until 12 min. pHCA and zosteric acid were quantified by measuring absorbance at 277 nm.
# The genes encoding the tyrosine ammonia-lyases RcTAL (from Rhodobacter capsulatus; SEQ ID NO: 48), RsTAL (from Rhodobacter sphaeroides; SEQ ID NO: 17) and FjTAL (from Flavobacterium johnsoniae; SEQ ID NO: 14) were cloned into expression vectors as follows. Genes (SEQ ID NO: 49, 50, and 51, respectively) were optimized for E. coli and synthesized by GeneArt, amplified by PCR using the oligonucleotides shown in the table below, and cloned into pCDFDuet-1 (Novagen): The plasmid was digested with NdeI and BgIII and gel purified. The genes were inserted by isothermal assembly using Gibson Assembly Master Mix (New England Biolabs), and transformed into chemically competent DH5a (laboratory strain) or NEB5α (New England Biolabs), selecting for resistance to 50 μg mL^−1 spectinomycin in LB medium. Resulting plasmids pCBJ215 (RsTAL), pCBJ228 (FjTAL) and pCBJ297 (RcTAL) (FIGS. 6 to 8, respectively) were co-transformed by electroporation into the E. coli expression strain BL21(DE3) (Invitrogen/Life Technologies) together with a pETDuet-1-based plasmid expressing SULT1A1 from rat (Example 1). Transformation cultures were plated on LB containing 50 μg mL^−1 spectinomycin and 100 μg mL^−1 ampicillin. A control strain carrying pCDFDuet-1 was also made.
# Strains harboring recombinant plasmids were pre-cultured in 2×YT liquid medium with 100 μg mL^−1 ampicillin and 50 μg mL^−1 spectinomycin and incubated at 37° C. and 250 rpm overnight. The following day, each pre-culture was transferred into 5 ml of M9 minimal medium with 0.2% glucose, 2 mM tyrosine and 1 mM IPTG for induction of expression. Cultures were placed in an incubator at 37° C. with shaking at 250 rpm overnight. The supernatants were then collected by centrifugation twice and applied to HPLC analysis as described in example 1, and the titers of p-coumaric acid (pHCA) and zosteric acid (ZA) were quantified using chemical standards and are presented in the table below.
# tyrosine [2] = assay: pHCA and zosteric acid in culture media of E. coli expressing an aryl sulfotransferase in combination with a tyrosine ammonia lyase; type: cell-based, Escherichia coli; settings: M9 glucose, 0.1 mM IPTG, no substrate added
# Experimental: as §1
# The enzyme RmXAL from Rhodotorula mucilaginosa/Rhodotorula rubra (SEQ ID NO: 20) has tyrosine ammonia lyase activity, thus catalyzing the non-oxidative deamination of the amino acid tyrosine, releasing p-coumaric acid (pHCA) and ammonia. The gene encoding RmXAL was codon optimized using standard algorithms for expression in E. coli available by GeneArt (Life Technologies) and amplified by PCR using the primers shown in table 5 and inserted into the pCDFDuet-1 vector (Novagen/Life Technologies), which had been digested by the restriction enzymes NdeI and BgIII, using Gibson reaction (New England Biolabs). FIG. 4 provides an image of the plasmid expressing RmXAL.
# The resulting plasmid was co-transformed into E. coli BL21(DE3)pLysS cells (Life Technologies) alone or together with the plasmid expressing SULT1A1 from Homo sapiens (example 1). The resulting strains was grown in M9 media with glucose as a carbon source, with 0.1 mM IPTG for induction of gene expression. Samples were taken as described previously (example 1) for analysis of product formation. […] RmXAL allowed the production of pHCA without addition of any substrate, thus providing a heterologous pathway from the cells normal metabolism to a heterologous product. The additional expression of an aryl sulfotransferase, exemplified by SULT1A1 from Homo sapiens, allowed the in vivo conversion of pHCA to zosteric acid. Thus, an aryl sulfotransferase can act upon a compound produced in vivo and the cells can release the resulting sulfated product to the medium.
Molecule,μM ZA (tyrosine [1]) [µM],μM pHCA (tyrosine [1]) [μM],Zosteric acid formed (tyrosine [2]),pHCA (tyrosine [2]) [mM]
B1,<1,78,–,–
B2,16,398,–,–
B3,–,–,Not detectable,0.04
B4,–,–,0.01 mM,0.02
B5,<1,20,–,–
